Test results from PMC11344481 (Journal of proteome research, 2024).

Legend:
[1] = molecular target: malate dehydrogenase (human (endogenous in heart tissue)) (UniProt P40925); assay: native MS
[2] = molecular target: the molecule itself; assay: native MS

malate dehydrogenase, sequence (P40925 whole entry): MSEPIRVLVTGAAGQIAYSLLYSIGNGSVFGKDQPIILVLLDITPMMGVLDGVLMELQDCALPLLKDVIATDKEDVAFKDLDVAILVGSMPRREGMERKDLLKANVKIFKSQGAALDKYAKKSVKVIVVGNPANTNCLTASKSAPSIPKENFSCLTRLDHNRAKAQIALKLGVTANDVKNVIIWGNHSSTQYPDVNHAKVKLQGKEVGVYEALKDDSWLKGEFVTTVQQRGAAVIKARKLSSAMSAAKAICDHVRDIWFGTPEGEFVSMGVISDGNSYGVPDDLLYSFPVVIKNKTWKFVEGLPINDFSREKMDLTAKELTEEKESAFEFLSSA

Molecule	stoichiometry N [1]	stoichiometry N [2]
malate dehydrogenase (from UniProt P40925 1-334) (enzyme)	2	
S100-A1 (natural protein, human (endogenous in heart tissue), UniProt P23297 2-94, looked up, N-terminal methionine removed and N-terminus acetylated (primary proteoform)) GSELETAMETLINVFHAHSGKEGDKYKLSKKELKELLQTELSGFLDAQKDVDAVDKVMKELDENGDGEVDFQEYVVLVAALTVACNNFFWENS		2
